The test has as its target Alternative Complex III from Flavobacterium johnsoniae (Flavobacterium johnsoniae (endogenous, ATCC 17061 strain UW101)). As to the kind of experiment: cryo-EM structure.

As to “aa3-type cytochrome c oxidase from Flavobacterium johnsoniae (complex)”, the stoichiometry N (ACIII:cyt aa3) worked out at 1.

The values above are taken from article PMC6004266.
